In this assay the target is SARS-COV-2 spike [change] trimer ([change]-foldon-His-Strep) (SARS-CoV-2 (Wuhan)) (UniProt P0DTC2).

The substance VHH72-S56A displayed an IC50 (read off the curve) of 0.6 µg/mL.

The values are drawn from US20250313611A1.
